Measured values taken from patent US20180237497A1 (CANCER RESEARCH TECHNOLOGY, published 2018).
Residue numbers refer to the chain shown, from its start. Names may count otherwise. Blank lines part the entries; values can stand above or below the binder they belong to.

Legend:
[1] = target: T1, human IGF2^1-67 (mature insulin-like growth factor 2) (human, UniProt P01344 25-91, biotinylated (site not stated) where immobilised on the chip (Tables 1-4)); assay: SPR kinetic, biotin-IGF2 on chip, pH 7.4
T1 construct: mature; also called mature IGF2; biotinylated IGF2
Description: (§1) Final kinetic analysis of mutants by SPR was conducted using a Biacore T200 biosensor at 25° C. in either HBS-EP (10 mM HEPES pH 7.4, 150 mM NaCl, 3 mM EDTA, and 0.005% (v/v) surfactant P20) or MES-EP (20 mM MES pH 6.5, 150 mM NaCl, 3 mM EDTA, and 0.005% (v/v) surfactant P20) at a flow-rate of 40 μL min⁻¹. […] For the analysis of the Fc-domain 11^AB5 interaction, approximately 50 RU of a biotinylated IGF2:biotinylated ubiquitin mixture (1:8 proportion) was immobilized on the CM5-streptavidin chip. This interaction was also analysed by immobilizing the Fc-domain 11^AB5 and Fc-domain 11^AB5-RHH (or Fc-domain 11^I1572A as control) by Human Antibody Capture (monoclonal mouse anti-human IgG antibody immobilised on a CM5 chip by amine coupling, GE Healthcare) with and without human IgG1 Fc fragment (Bethyl Laboratories, UK) in the control flow cell. […] T200 BiaEvaluation software (GE Healthcare) was used to fit the resulting curves according to a 1:1 binding model. Steady state affinities were determined using the kinetic data, taking the response average at 5 seconds before injection end and for 5 seconds average. Thermodynamic data was performed across the temperature range of 10° C. to 30° C., van't Hoff and Erying plots generated and ΔH, −TΔS and ΔG values determined as previously described.

[2] = target: T1, human IGF2^1-67 (mature insulin-like …); assay: SPR steady state, biotin-IGF2 on chip, pH 7.4
Description: as §1

[3] = target: T1, human IGF2^1-67 (mature insulin-like …); assay: SPR steady state, biotin-IGF2 on chip, pH 7.4; remark: listed apart in the source
Description: (§2) Surface plasmon resonance (SPR) binding analysis of recombinant M6P/IGF2R domain 11 mutants interaction with IGF2. Kon indicates association (on) rate; koff, dissociation (off) rate; RU, response units. Binding to IGF2 assessed with BIAcore T200 using purified biotinylated IGF2 and IGF1 on a streptavidin biosensor chip. Recombinant proteins were expressed either in E. coli and/or P. pastoris. All the mutants in the FG and CD loops are on the domain 11^AB5 background for the AB loop unless otherwise stated. All experiments were carried out at 25° C. in HBS-EP buffer (pH 7.4), were repeated 2-5 times on two independent BIAcore chips. nd=not determined. Data for KD expressed as mean of each experiment, and means of kon and koff are shown.
as §1, with “average.” for “average. Thermodynamic data was performed across the temperature range of 10° C. to 30° C., van't Hoff and Erying plots generated and ΔH, −TΔS and ΔG values determined as previously described.”

[4] = target: T1, human IGF2^1-67 (mature insulin-like …); assay: SPR
Description: as §2
as §1, with “model.” for “model. Steady state affinities were determined using the kinetic data, taking the response average at 5 seconds before injection end and for 5 seconds average. Thermodynamic data was performed across the temperature range of 10° C. to 30° C., van't Hoff and Erying plots generated and ΔH, −TΔS and ΔG values determined as previously described.”

[5] = target: T1, human IGF2^1-67 (mature insulin-like …); assay: SPR kinetic, biotin-IGF2 on chip, pH 7.4; remark: listed apart in the source
Description: as §2
as §1, with “average.” for “average. Thermodynamic data was performed across the temperature range of 10° C. to 30° C., van't Hoff and Erying plots generated and ΔH, −TΔS and ΔG values determined as previously described.”

[6] = target: T1, human IGF2^1-67 (mature insulin-like …); assay: SPR steady state, biotin-IGF2 on chip
Description: as §1

[7] = target: T1, human IGF2^1-67 (mature insulin-like …); assay: SPR kinetic, biotin-IGF2 on chip
Description: as §1

T1 sequence (P01344 25-91): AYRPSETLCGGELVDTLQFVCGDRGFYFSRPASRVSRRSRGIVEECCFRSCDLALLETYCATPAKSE

B1: domain 11^AB3 P1597H K1631W (receptor)
chain: MKSNEHDDCQVTNPSTGHLFDLSSLSGRAGFTAAYSKSGVVYMSICGENENCPPGVGACFGQTRISVGKANKRLRYVDQVLQLVYKDGSHCPSKSGLSYKSVISFVCRPEAGPTNRPMLISLDWQTCTLFFSWHTPLACEQATECSV
notes: See m5
Kd [1]: 17.6 nM
koff [1]: 0.348 s⁻¹
kon [1]: 1.97e+07 M⁻¹ s⁻¹
Kd [2]: 18.7 nM

B2: domain 11^AB3 P1597K S1602H (receptor)
chain: B1 chain with H90K, S95H, W124K
notes: See m5
Kd [1]: 3.73 nM
koff [1]: 0.0102 s⁻¹
kon [1]: 2.74e+06 M⁻¹ s⁻¹
Kd [2]: 5.33 nM

B3: domain 11^AB5 P1597A (receptor)
chain: B1 chain with S36A, S38G, G39W, V40G, H90A, W124K
notes: See m5
Kd [1]: 9.07 nM
koff [1]: 0.0174 s⁻¹
kon [1]: 1.9e+06 M⁻¹ s⁻¹
Kd [2]: 12.4 nM

B5: domain 11^AB5 Q1569R P1597K (receptor)
chain: B1 chain with S36A, S38G, G39W, V40G, Q62R, H90K, W124K
notes: See m5
Kd [1]: 0.95 nM
koff [1]: 0.0091 s⁻¹
kon [1]: 9.59e+06 M⁻¹ s⁻¹
Kd [2]: 1.69 nM

B6: domain 11^AB5 P1597N (receptor)
chain: B1 chain with S36A, S38G, G39W, V40G, H90N, W124K
notes: See m5
Kd [1]: 4.13 nM
koff [1]: 0.018 s⁻¹
kon [1]: 4.72e+06 M⁻¹ s⁻¹
Kd [2]: 5.36 nM

B8: domain 11^AB3 Q1569R P1597K (receptor)
chain: B1 chain with Q62R, H90K, W124K
notes: See m5
Kd [1]: 1.34 nM
koff [1]: 0.0241 s⁻¹
kon [1]: 2e+07 M⁻¹ s⁻¹
Kd [2]: 2.27 nM

B9: domain 11^AB5 P1597K S1602H (receptor)
chain: B1 chain with S36A, S38G, G39W, V40G, H90K, S95H, W124K
notes: See m5
Kd [1]: 4.62 nM
koff [1]: 0.0096 s⁻¹
kon [1]: 2.09e+06 M⁻¹ s⁻¹
Kd [2]: 7.85 nM

B10: domain 11^AB5 K1601R (receptor)
chain: B1 chain with S36A, S38G, G39W, V40G, H90P, K94R, W124K
notes: See m5
Kd [3]: 5.78 nM
fold improvement of affinity [4]: ≤ 2 fold
Kd [5]: 4.75 nM
koff [5]: 0.0251 s⁻¹
kon [5]: 5.28e+06 M⁻¹ s⁻¹

B13: domain 11^AB5 Q1569R P1597H K1631W (receptor)
chain: B1 chain with S36A, S38G, G39W, V40G, Q62R
notes: See m5
Kd [1]: 1.02 nM
koff [1]: 0.0115 s⁻¹
kon [1]: 1.12e+07 M⁻¹ s⁻¹
Kd [2]: 1.95 nM

B14: domain 11^AB5 + 51F (HI-NRQS) (receptor)
chain: B1 chain with S36A, S38G, G39W, V40G, H90P, D123N, W124R, T126S
notes: See m5; Protein quality poor
Kd [6]: 6.94 nM
Kd [7]: 13.5 nM
koff [7]: 0.1 s⁻¹
kon [7]: 7.4e+06 M⁻¹ s⁻¹

B15: domain 11^AB3 Q1569R P1597K S1602H (receptor)
chain: B1 chain with Q62R, H90K, S95H, W124K
notes: See m5
Kd [1]: 0.79 nM
koff [1]: 0.016 s⁻¹
kon [1]: 2.01e+07 M⁻¹ s⁻¹
Kd [2]: 1.39 nM

B16: domain 11^AB3 Q1569R P1597K S1602H G1603K (receptor)
chain: B1 chain with Q62R, H90K, S95H, G96K, W124K
notes: See m5
Kd [1]: 0.78 nM
koff [1]: 0.0171 s⁻¹
kon [1]: 2.08e+07 M⁻¹ s⁻¹
Kd [2]: 1.62 nM

B17: domain 11^AB5 P1597L (receptor)
chain: B1 chain with S36A, S38G, G39W, V40G, H90L, W124K
notes: See m5
Kd [1]: 3.86 nM
koff [1]: 0.015 s⁻¹
kon [1]: 4.18e+06 M⁻¹ s⁻¹
Kd [2]: 4.85 nM

B20: domain 11^AB5 P1597Q (receptor)
chain: B1 chain with S36A, S38G, G39W, V40G, H90Q, W124K
notes: See m5
Kd [1]: 3.83 nM
koff [1]: 0.0203 s⁻¹
kon [1]: 6.53e+06 M⁻¹ s⁻¹
Kd [2]: 4.51 nM

B21: domain 11^AB5 P1597K (receptor)
chain: B1 chain with S36A, S38G, G39W, V40G, H90K, W124K
notes: See m5
Kd [1]: 1.94 nM
koff [1]: 0.012 s⁻¹
kon [1]: 9.54e+06 M⁻¹ s⁻¹
Kd [2]: 2.21 nM

B22: domain 11^AB5 P1597S (receptor)
chain: B1 chain with S36A, S38G, G39W, V40G, H90S, W124K
notes: See m5
Kd [1]: 4.19 nM
koff [1]: 0.0193 s⁻¹
kon [1]: 5e+06 M⁻¹ s⁻¹
Kd [2]: 4.9 nM

B23: domain 11^AB3 P1597K (receptor)
chain: B1 chain with H90K, W124K
notes: See m5
Kd [1]: 2.78 nM
koff [1]: 0.0287 s⁻¹
kon [1]: 1.05e+07 M⁻¹ s⁻¹
fold change of KD against domain 11^AB3 [4]: 6 fold
fold reduction of koff against domain 11^AB3 [4]: 2 fold
Kd [2]: 3.59 nM

Next, values leading:

Kd [3]: 5.11 nM
fold improvement of affinity [4]: ≤ 2 fold
Kd [5]: 3.61 nM
koff [5]: 0.0191 s⁻¹
kon [5]: 5.88e+06 M⁻¹ s⁻¹
B4: domain 11^AB5 S1602Q (receptor)
chain: B1 chain with S36A, S38G, G39W, V40G, H90P, S95Q, W124K
notes: See m5

Kd [1]: 0.92 nM
koff [1]: 0.0073 s⁻¹
kon [1]: 7.87e+06 M⁻¹ s⁻¹
Kd [2]: 2.11 nM
B7: domain 11^AB5 Q1569R P1597K S1602H (receptor)
chain: B1 chain with S36A, S38G, G39W, V40G, Q62R, H90K, S95H, W124K
notes: See m5

Kd [3]: 5 nM
fold reduction of koff [4]: 2 fold
Kd [5]: 4.35 nM
koff [5]: 0.018 s⁻¹
kon [5]: 4.5e+06 M⁻¹ s⁻¹
B11: domain 11^AB5 W1546F (receptor)
chain: B1 chain with S36A, S38G, G39F, V40G, H90P, W124K
notes: See m5

Kd [6]: 220 nM
Kd [7]: 176 nM
koff [7]: 0.065 s⁻¹
kon [7]: 250000 M⁻¹ s⁻¹
B12: domain 11^WT + 23D (HI-HFQS) (receptor)
chain: B1 chain with K37E, S38K, V40L, H90P, D123H, W124F, T126S
notes: See m5; Protein quality poor based on absorption spectra

Kd [3]: 53.5 nM
Kd [5]: 26.4 nM
koff [5]: 0.0196 s⁻¹
kon [5]: 800000 M⁻¹ s⁻¹
B18: domain 11^AB5 T1633A (receptor)
chain: B1 chain with S36A, S38G, G39W, V40G, H90P, W124K, T126A
notes: See m5; HI loop mutant

Kd [6]: 127 nM
Kd [7]: 130 nM
koff [7]: 0.24 s⁻¹
kon [7]: 1.89e+06 M⁻¹ s⁻¹
B19: domain 11^WT + 26C (HI-DMQT) (receptor)
chain: B1 chain with K37E, S38K, V40L, H90P, W124M
notes: See m5; Protein quality poor

Kd [6]: 194 nM
Kd [7]: 195 nM
koff [7]: 0.25 s⁻¹
kon [7]: 2e+06 M⁻¹ s⁻¹
B24: domain 11^WT + 27G (HI-NMAL) (receptor)
chain: B1 chain with K37E, S38K, V40L, H90P, D123N, W124M, Q125A, T126L
notes: See m5; Protein quality poor
